Source: patent publication US20200164059A1

What was measured:
[1] = biological target: EBV gH/gL heterodimer, recombinant ectodomain (Epstein Barr virus); assay: BLI kinetics, pH 7.4, ligand AMMO1Q1NHC Mab, analyte gH/gL; KA M^-1 x10^7
[2] = biological target: EBV gH/gL heterodimer, recombinant ectodomain (Epstein Barr virus); assay: BLI kinetics, pH 7.4, ligand AMMO1Q1NHC Mab, analyte gH/gL; KD M x10^-9
[3] = biological target: EBV gH/gL heterodimer, recombinant ectodomain (Epstein Barr virus); assay: BLI kinetics, pH 7.4, ligand AMMO1Q1NHC Mab, analyte gH/gL; koff (1/s) x10^-3
[4] = biological target: EBV gH/gL heterodimer, recombinant ectodomain (Epstein Barr virus); assay: BLI kinetics, pH 7.4, ligand AMMO1Q1NHC Mab, analyte gH/gL; kon (1/Ms) x10^5
[5] = biological target: T1, EBV gH/gL heterodimer, recombinant ectodomain (Epstein Barr virus); assay: BLI kinetics, pH 7.4, ligand gH/gL, analyte AMMO1 Fab; KA M^-1 x10^7
[6] = biological target: T1, EBV gH/gL heterodimer, recombinant …; assay: BLI kinetics, pH 7.4, ligand gH/gL, analyte AMMO1 Fab; KD M x10^-9

Row | Binder | Ka [1] [M⁻¹] | Kd [2] [nM] | koff [3] [s⁻¹] | kon [4] [M⁻¹ s⁻¹] | Ka [5] [M⁻¹] | Kd [6] [nM]
1 | AMMO1 containing a Q1N heavy chain mutation (antibody, V domains shown) VH: NVQLVQSGADVKKPGASVKVSCKASGYTFIHFGISWVRQAPGQGLEWMGWIDTNNGNTNYAQSLQGRVTMTTDTSTGTAYMELRSLSTDDTAVYFCARALEMGHRSGFPFDYWGQGVLVTVSP VL: SYELTQPPSVSVAPGQRATITCGGHNIGAKNVHWYQQKPGQAPVLVIQYDSDRPSGIPERFSGSNSGSTATLTISRVEAGDEADYYCQVWDSGRGHPLYVFGGGTKVTVL | 6.34e+09 | 0.16 | 3.85e-05 | 244000 |  | 
2 | AMMO1 Fab (Fab, V domains shown, modifications not checked) VH: QVQLVQSGADVKKPGASVKVSCKASGYTFIHFGISWVRQAPGQGLEWMGWIDTNNGNTNYAQSLQGRVTMTTDTSTGTAYMELRSLSTDDTAVYFCARALEMGHRSGFPFDYWGQGVLVTVSP VL: SYELTQPPSVSVAPGQRATITCGGHNIGAKNVHWYQQKPGQAPVLVIQYDSDRPSGIPERFSGSNSGSTATLTISRVEAGDEADYYCQVWDSGRGHPLYVFGGGTKVTVL |  |  |  |  | 8.12e+09 | 0.12
